Experimental data published in article PMC2191632 (The Journal of Experimental Medicine, 1994).
Where no end group is shown, it is not given here.

Assays:
[1] = target: DRB1*0405 complex (HLA-DR4, DRA-DRB1*0405) (Homo sapiens, UniProt P01903+P01911, A100R/A169T/D86S/F76Y/I96L/K127E/L162R/M171V/N62H/P40V/Q125Y/R42H/S133A/S149N/S66Y/V115G/V209L/W38E); assay type: binding
DRB1*0406 complex = DRB1*0406 complex (Homo sapiens, UniProt P01903+P01911, A100R/A103E/A169T/F76Y/I96L/K127E/L162R/M171V/N62H/P40V/Q125Y/R42H/S133A/S149N/V209L/W38E); assay type: binding
[2] = Solubility of polyalanine-based peptide; assay type: physicochemical; conditions: in words; lysine then inserted at NH2 terminus to increase solubility
[3] = target: HLA-DR4 (DRA-DRB1*0406 complex) (human (endogenous in KT13)); assay: radioligand binding
[4] = target: HLA-DR4 (DRA-DRB1*0405 complex) (human (endogenous in EBWa)); assay: radioligand binding

**Q.** For AALAAIASAA, which IC50 [1] is on record?
**A.** The IC50 was 11 µM.

**Q.** And the IC50 (DRB1*0406 complex)?
**A.** Its IC50 is 8.8 µM.

**Q.** For AAFAAMASAA, which IC50 [1] is on record?
**A.** The IC50 was 3.6 µM.

**Q.** What about the IC50 (DRB1*0406 complex) of the same molecule?
**A.** The IC50 was 1.1 µM.

**Q.** For AAYAALANAA, which IC50 [1] is on record?
**A.** The IC50 was 1.4 µM.

**Q.** And the IC50 (DRB1*0406 complex)?
**A.** The IC50 was 5 µM.

**Q.** For AAYAAVAVAA, which Solubility [2] is on record?
**A.** Its Solubility is “not soluble”.

**Q.** With KAAYAAVAVAA as the molecule, how does the IC50 [1] read?
**A.** The IC50 was 5.1 µM.

**Q.** And the IC50 (DRB1*0406 complex)?
**A.** The IC50 was 12.2 µM.

**Q.** Which IC50 [3] does the source give for K-Ins beta p1-18 (…) (peptide) here?
**A.** The IC50 was greater than 500 µM.

**Q.** For SDPILYRPVAVALDTKGPE [PKM2p99-117 (…), unlabeled], which percent inhibition of 125I-0405BP3 binding at 20 uM [3] is on record?
**A.** Its percent inhibition of 125I-0405BP3 binding at 20 uM is 71%.

**Q.** And the percent inhibition of 125I-0405BP3 binding at 20 uM [4]?
**A.** The percent inhibition of 125I-0405BP3 binding at 20 uM was 90%.

**Q.** For NELSGEAHKDALGKLY [irrelevant peptide (…), unlabeled], which percent inhibition of 125I-0405BP3 binding at 20 uM [3] is on record?
**A.** Its percent inhibition of 125I-0405BP3 binding at 20 uM is 2%.

**Q.** What about the percent inhibition of 125I-0405BP3 binding at 20 uM [4] of the same molecule?
**A.** Its percent inhibition of 125I-0405BP3 binding at 20 uM is 1%.

**Q.** Which percent inhibition of 125I-0405BP3 binding at 20 uM [3] does the source give for EGQLVSIHSPEEQDFLTKHA [CD23p195-214 (…)] here?
**A.** The percent inhibition of 125I-0405BP3 binding at 20 uM was 63%.

**Q.** What about the percent inhibition of 125I-0405BP3 binding at 20 uM [4] of the same molecule?
**A.** The percent inhibition of 125I-0405BP3 binding at 20 uM was 59%.

**Q.** With AAFAAMASAA as the molecule, how does the IC50 [3] read?
**A.** Its IC50 is 1.1 µM.

**Q.** For AALAAIASAA, which IC50 [3] is on record?
**A.** Its IC50 is 8.8 µM.

**Q.** Which IC50 [3] does the source give for AAKAAKAGAA here?
**A.** Its IC50 is greater than 500 µM.

**Q.** For GSTVFDNLPAPE [… with 10th N to A], which percent by which the substitution inhibited binding (against …) [4] is on record?
**A.** The percent by which the substitution inhibited binding (against …) was 70%.

**Q.** With KLVEALYLVCGERGFFYTPKT [K-Ins beta p11-30 (…)] as the molecule, how does the IC50 [3] read?
**A.** The IC50 was 14.5 µM.

**Q.** For VPIQRAVYQNVVVNN [0405BP1 (…), unlabeled], which percent inhibition of 125I-0405BP3 binding at 20 uM [3] is on record?
**A.** Its percent inhibition of 125I-0405BP3 binding at 20 uM is 70%.

**Q.** And the percent inhibition of 125I-0405BP3 binding at 20 uM [4]?
**A.** The percent inhibition of 125I-0405BP3 binding at 20 uM was 103%.

**Q.** Which IC50 [3] does the source give for KSLYQLENYCN [K-Ins alpha p12-21 (…)] here?
**A.** Its IC50 is 12 µM.

**Q.** With GSTVFDNLPNPEIDGDYYGW [0405BP3 (…), unlabeled] as the molecule, how does the percent inhibition of 125I-0405BP3 binding at 20 uM [3] read?
**A.** The percent inhibition of 125I-0405BP3 binding at 20 uM was 96%.

**Q.** What about the Kd [4] of the same molecule?
**A.** The Kd was 70 nM.

**Q.** And the percent inhibition of 125I-0405BP3 binding at 20 uM [4]?
**A.** Its percent inhibition of 125I-0405BP3 binding at 20 uM is 97%.

**Q.** Which percent inhibition of 125I-0405BP3 binding at 20 uM [3] does the source give for GPKPLFRRMSSLVGPTQSFF [CD20p26-45 (…)] here?
**A.** Its percent inhibition of 125I-0405BP3 binding at 20 uM is 96%.

**Q.** And the percent inhibition of 125I-0405BP3 binding at 20 uM [4]?
**A.** The percent inhibition of 125I-0405BP3 binding at 20 uM was 90%.

**Q.** With KAAYAAVAVAA as the molecule, how does the IC50 [3] read?
**A.** The IC50 was 12.2 µM.

**Q.** For KGIVEQCCTSI [K-Ins alpha p1-10 (…)], which IC50 [3] is on record?
**A.** The IC50 was greater than 500 µM.

**Q.** Which IC50 [3] does the source give for AAYAALANAA here?
**A.** Its IC50 is 5 µM.

**Q.** Which IC50 [3] does the source give for KKTSICSLYQLE [KK-Ins alpha p8-17 (…)] here?
**A.** The IC50 was 4.1 µM.

**Q.** Which percent inhibition of 125I-0405BP3 binding at 20 uM [3] does the source give for SPGTGAYYVLLN [0405BP2 (…)] here?
**A.** The percent inhibition of 125I-0405BP3 binding at 20 uM was 85%.

**Q.** And the percent inhibition of 125I-0405BP3 binding at 20 uM [4]?
**A.** Its percent inhibition of 125I-0405BP3 binding at 20 uM is 93%.
